± gives the uncertainty stated by the source.
B1: Ankyrin repeat and SOCS box protein 14, residues 532 to 572; numbered along this chain, A6NK59 (parent)
chain: RSLKHLCRLKIRKCMGRLHLRCPVFMSFLPLPNRLKAYVLY

Variants of: B1
Assay: abundance fitness (aPCA) (normalised: wild type 0, dead -1); higher = more abundant; growth selection in yeast, the domain comes from the species named
Settings: Homo sapiens

Abundance fitness: each site, then its substitutions
R34: H -0.455 ± 0.32, P -0.582 ± 0.12, K -0.166 ± 0.094, V -0.447 ± 0.067, G -0.29 ± 0.046, E -0.054 ± 0.1, F -0.168 ± 0.12, W 0.022 ± 0.054, L -0.709 ± 0.095, Y -0.155 ± 0.26, M -0.714 ± 0.13, A -0.255 ± 0.048, Q -0.44 ± 0.2, T -0.203 ± 0.098, S -0.218 ± 0.066, C -0.204 ± 0.056
Y38: Q -0.45 ± 0.083, G -0.59 ± 0.091, C -0.622 ± 0.1, K -0.485 ± 0.091, A -0.343 ± 0.063, W 0.295 ± 0.052, H -0.535 ± 0.16, I -0.293 ± 0.29, T -0.478 ± 0.082, M -0.454 ± 0.13, D -0.681 ± 0.11, R -0.446 ± 0.052, P -0.731 ± 0.12, L -0.346 ± 0.084, S -0.436 ± 0.059, E -0.599 ± 0.081, V -0.558 ± 0.059
P32: S -0.363 ± 0.062, L 0.403 ± 0.047, H -0.47 ± 0.17, M 0.212 ± 0.072, G -0.223 ± 0.05, R -0.452 ± 0.048, W 0.552 ± 0.049, E -1.07 ± 0.13, K -0.179 ± 0.07, Q -0.587 ± 0.091, Y 0.221 ± 0.14, I -0.013 ± 0.12, F 0.465 ± 0.062
V39: L -0.098 ± 0.087, A -0.361 ± 0.066, T -0.186 ± 0.19, W -0.43 ± 0.065, Q -1.3 ± 0.2, I -0.022 ± 0.24, S -0.779 ± 0.13, G -0.743 ± 0.069, D -0.95 ± 0.22
Y41: H 0.12 ± 0.07, S 0.356 ± 0.063, V 0.398 ± 0.13, C 0.146 ± 0.071, R 0.373 ± 0.056, W 0.072 ± 0.095, N -0.052 ± 0.19, M 0.257 ± 0.094, T 0.169 ± 0.17, G 0.368 ± 0.14
L40: V -0.132 ± 0.056, S -0.092 ± 0.078, E 0.031 ± 0.059, T -0.247 ± 0.079, D -0.113 ± 0.26, Q -0.192 ± 0.092, A -0.075 ± 0.056, R 0.055 ± 0.046, G -0.312 ± 0.051, P -0.405 ± 0.13
K36: E -0.732 ± 0.16, Y -0.335 ± 0.23, S -0.662 ± 0.09, C -0.398 ± 0.13, L -0.242 ± 0.053, Q -0.374 ± 0.12, W -0.062 ± 0.057, M -0.398 ± 0.12, G -0.599 ± 0.073, P -0.725 ± 0.11, I -0.274 ± 0.18, F -0.022 ± 0.21, T -0.423 ± 0.071, N -0.932 ± 0.3, V -0.051 ± 0.058, R -0.294 ± 0.055, A -0.382 ± 0.075
L35: T -0.966 ± 0.17, R -1.28 ± 0.12, P -0.913 ± 0.19, E -1.12 ± 0.26, I -0.18 ± 0.11, N -0.729 ± 0.47, S -0.66 ± 0.091, W 0.044 ± 0.082, D -1.24 ± 0.23, H -0.955 ± 0.35, V -0.103 ± 0.048, A -0.466 ± 0.058, G -1.13 ± 0.094, C -0.135 ± 0.21, K -1.29 ± 0.47
N33: Y -0.586 ± 0.23, K -0.222 ± 0.09, W -0.528 ± 0.078, A 0.234 ± 0.046, G 0.216 ± 0.049, Q 0.111 ± 0.068, P -0.004 ± 0.064, M -0.629 ± 0.21, S 0.105 ± 0.057, L -0.432 ± 0.073, I -0.452 ± 0.27, E 0.173 ± 0.049, C -0.151 ± 0.14, H 0.129 ± 0.084, R 0.044 ± 0.046, D 0.057 ± 0.12
A37: L -0.404 ± 0.06, H -0.118 ± 0.072, M -0.207 ± 0.082, G -0.291 ± 0.05, V -0.482 ± 0.058, Q 0.083 ± 0.093, S -0.143 ± 0.059, R -0.002 ± 0.045, P -0.995 ± 0.11, E 0.021 ± 0.1, C -0.091 ± 0.11, W -0.502 ± 0.057

From the Human Domainome abundance scans (Beltran et al. 2025)
